Results on one substance are retold here after publication PMC7105138, “Modeling cancer genomic data in yeast reveals selection against ATM function during tumorigenesis” (PLoS Genetics, 2020).

By Kd is commonly meant the equilibrium constant for the complex coming apart. A lower Kd goes with a tighter complex.

Common to all, as to test: EMSA
Settings in all cases: ATP, 5 mM Mg2+, 150 mM NaCl; 25 mM Tris-Cl pH 7.6, 150 mM NaCl (also 50, 250, 300 mM), 7.5% glycerol, 1 mM beta-mercaptoethanol, 0.125% Igepal, 5 mM MgCl2, with or without 5 mM ATP; 5 nM …
A general note: Mobility shift assays separate free from complexed probe on a gel.

For data set [1], the system named is Rad50-D67Y (Saccharomyces cerevisiae).
Data set [2] has as its system Rad50-L1240F (Saccharomyces cerevisiae).
Data set [3] has as its system Rad50-D67N (Saccharomyces cerevisiae).
Data set [4] has as its system Rad50-L1240F-I23V (Saccharomyces cerevisiae).

With 83-mer dsDNA oligonucleotide, the dissociation constant Kd was 320 nM in data set [1], above 800 nM in data set [2], 200 nM in data set [3] and above 800 nM in data set [4].
